This passage reports Kd results from patent publication US20030068675, “Position dependent recognition of GNN nucleotide triplets by zinc fingers” (published 2003).

Common to all, as to assay: EMSA
What all share (conditions): tags: MBP fusion
A general note: In EMSA bound probe runs differently from free probe, usually more slowly.

For data set [1], the target named is ZFP SBS#466 (synthetic). The method, boiled down: (§1)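 Purified ZFP was titrated against labeled double-stranded target (1 nM or lower, at least 10-fold below expected Kd) carrying the natural binding site with flanks. Binding buffer was 10 mM Tris pH 7.5, 100 mM KCl, 1 mM MgCl2, 0.1 mM ZnCl2, 5 mM DTT, 10% glycerol, 0.02% BSA, with equilibration for at least 45 min. Bound and free target were separated on a 10% polyacrylamide gel.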

Data set [2] concerns the target ZFP SBS#467 (synthetic). The method, boiled down:
as §1

Data set [3] has as its target ZFP SBS#468 (synthetic). The method, boiled down:
as §1

Data set [4] addresses T1, ZFP SBS#1087 (synthetic, UniProt P08047).
T1 chain: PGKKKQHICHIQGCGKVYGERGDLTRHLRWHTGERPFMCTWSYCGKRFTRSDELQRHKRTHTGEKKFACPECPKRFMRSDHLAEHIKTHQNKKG
Summed up: as §1

In data set [5] the target is T2, ZFP SBS#1088 (synthetic, UniProt P08047).
T2 chain: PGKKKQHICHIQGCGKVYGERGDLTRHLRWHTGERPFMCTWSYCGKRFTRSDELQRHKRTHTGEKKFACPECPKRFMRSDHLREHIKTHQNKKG
The method, boiled down: as §1

Data set [6] deals with T3, ZFP SBS#1097 (synthetic).
T3 chain: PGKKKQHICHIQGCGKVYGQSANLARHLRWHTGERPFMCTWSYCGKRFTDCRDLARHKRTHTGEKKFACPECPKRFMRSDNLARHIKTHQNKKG
Summed up:
as §1

Data set [7] addresses ZFP SBS#1113 (synthetic). The method, boiled down:
as §1

The target in data set [8] is T4, ZFP SBS#1083 (synthetic).
T4 chain: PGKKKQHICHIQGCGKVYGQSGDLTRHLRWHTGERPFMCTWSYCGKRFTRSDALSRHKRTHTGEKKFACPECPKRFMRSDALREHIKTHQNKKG
The method, boiled down:
as §1

Data set [9] concerns the target ZFP SBS#1105 (synthetic). Summed up:
as §1

Data set [10] concerns the target ZFP SBS#1106 (synthetic). The method, boiled down: as §1
Data set [11] concerns the target T5, ZFP SBS#1084 (synthetic).
T5 chain: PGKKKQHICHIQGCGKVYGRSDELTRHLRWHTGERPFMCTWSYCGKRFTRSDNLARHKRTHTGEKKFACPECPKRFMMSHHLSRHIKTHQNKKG
Summed up: as §1

Data set [12] addresses T6, ZFP SBS#1085 (synthetic).
T6 chain: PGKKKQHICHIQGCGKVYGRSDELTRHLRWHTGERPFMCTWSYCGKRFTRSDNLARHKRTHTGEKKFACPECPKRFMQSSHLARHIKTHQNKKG
Summed up:
as §1

Data set [13] has as its target ZFP SBS#1112 (synthetic). The method, boiled down: as §1
Data set [14] has as its target T7, ZFP SBS#1111 (synthetic).
T7 chain: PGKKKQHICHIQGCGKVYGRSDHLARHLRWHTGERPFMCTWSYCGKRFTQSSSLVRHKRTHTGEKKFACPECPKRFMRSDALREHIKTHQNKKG
The method, boiled down:
as §1

Data set [15] deals with ZFP SBS#1115 (synthetic). The method, boiled down: as §1
For data set [16], the target named is T8, ZFP SBS#1114 (synthetic).
T8 chain: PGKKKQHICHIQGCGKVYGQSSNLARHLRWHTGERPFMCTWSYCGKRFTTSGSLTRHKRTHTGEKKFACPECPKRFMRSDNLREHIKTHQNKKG
Summed up:
as §1

Data set [17] has as its target T9, ZFP SBS#1120 (synthetic).
T9 chain: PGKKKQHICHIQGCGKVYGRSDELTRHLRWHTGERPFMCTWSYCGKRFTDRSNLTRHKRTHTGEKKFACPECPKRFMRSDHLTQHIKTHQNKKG
Summed up: as §1

For data set [18], the target named is ZFP SBS#1123 (synthetic). The method, boiled down: as §1
Data set [19] addresses T10, ZFP SBS#469 (synthetic).
T10 chain: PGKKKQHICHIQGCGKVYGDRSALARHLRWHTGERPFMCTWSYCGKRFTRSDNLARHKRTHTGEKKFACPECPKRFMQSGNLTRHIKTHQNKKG
Summed up: as §1

The target in data set [20] is T11, ZFP SBS#1118 (synthetic).
T11 chain: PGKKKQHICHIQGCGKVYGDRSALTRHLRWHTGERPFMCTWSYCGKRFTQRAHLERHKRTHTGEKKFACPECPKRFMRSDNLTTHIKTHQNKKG
Summed up:
as §1

Data set [21] deals with ZFP SBS#1086 (synthetic). Summed up:
as §1

Data set [22] deals with T12, ZFP SBS#1121 (synthetic).
T12 chain: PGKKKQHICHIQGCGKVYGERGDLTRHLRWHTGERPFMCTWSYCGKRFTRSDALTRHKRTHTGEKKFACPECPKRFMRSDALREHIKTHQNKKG
The method, boiled down:
as §1

Data set [23] addresses T13, ZFP SBS#1122 (synthetic).
T13 chain: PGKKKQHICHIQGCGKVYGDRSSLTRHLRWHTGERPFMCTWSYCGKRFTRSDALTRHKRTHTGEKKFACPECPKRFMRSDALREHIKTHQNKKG
Summed up:
as §1

In data set [24] the target is T14, ZFP SBS#1110 (synthetic).
T14 chain: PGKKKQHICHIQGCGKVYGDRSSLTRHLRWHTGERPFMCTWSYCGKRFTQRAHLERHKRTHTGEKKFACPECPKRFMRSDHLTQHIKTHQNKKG
Summed up:
as §1

Data set [25] addresses T15, ZFP SBS#1109 (synthetic).
T15 chain: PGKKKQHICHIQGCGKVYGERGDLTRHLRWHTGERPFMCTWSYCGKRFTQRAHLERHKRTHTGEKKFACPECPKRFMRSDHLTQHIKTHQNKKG
Summed up: as §1

Data set [26] deals with T16, ZFP SBS#1102 (synthetic).
T16 chain: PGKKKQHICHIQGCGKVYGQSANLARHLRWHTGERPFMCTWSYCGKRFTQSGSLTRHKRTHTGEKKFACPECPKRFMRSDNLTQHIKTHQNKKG
The method, boiled down:
as §1

Data set [27] addresses ZFP SBS#1103 (synthetic). Summed up: as §1
Data set [28] deals with T17, ZFP SBS#1119 (synthetic, UniProt P08047).
T17 chain: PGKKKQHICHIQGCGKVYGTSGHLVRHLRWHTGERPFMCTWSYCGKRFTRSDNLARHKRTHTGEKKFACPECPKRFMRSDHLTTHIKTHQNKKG
The method, boiled down:
as §1

Data set [29] addresses T18, ZFP SBS#1096 (synthetic).
T18 chain: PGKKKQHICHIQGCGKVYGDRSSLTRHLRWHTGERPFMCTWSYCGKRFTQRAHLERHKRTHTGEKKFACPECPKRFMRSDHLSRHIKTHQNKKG
Summed up:
as §1

The target in data set [30] is T19, ZFP SBS#1095 (synthetic).
T19 chain: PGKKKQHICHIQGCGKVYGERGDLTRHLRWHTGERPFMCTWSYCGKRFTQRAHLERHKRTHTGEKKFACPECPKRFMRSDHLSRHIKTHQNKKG
The method, boiled down:
as §1

Data set [31] deals with T20, ZFP SBS#1089 (synthetic).
T20 chain: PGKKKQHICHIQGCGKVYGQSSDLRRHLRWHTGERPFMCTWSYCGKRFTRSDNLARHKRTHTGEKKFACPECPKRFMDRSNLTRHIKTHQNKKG
The method, boiled down: as §1

Data set [32] deals with T21, ZFP SBS#1094 (synthetic).
T21 chain: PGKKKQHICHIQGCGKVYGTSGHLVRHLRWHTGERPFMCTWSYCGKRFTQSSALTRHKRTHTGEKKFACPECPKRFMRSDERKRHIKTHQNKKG
Summed up: as §1

Sequence of ZFP SBS#1105 (synthetic) (chain, as listed by the source): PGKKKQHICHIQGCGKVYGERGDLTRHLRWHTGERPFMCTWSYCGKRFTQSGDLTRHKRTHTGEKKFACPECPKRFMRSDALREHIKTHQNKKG
Sequence of ZFP SBS#1112 (synthetic) (chain, as listed by the source): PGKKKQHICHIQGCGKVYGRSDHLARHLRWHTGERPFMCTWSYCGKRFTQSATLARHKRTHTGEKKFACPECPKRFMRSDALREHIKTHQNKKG
Sequence of ZFP SBS#1103 (synthetic) (chain, as listed by the source): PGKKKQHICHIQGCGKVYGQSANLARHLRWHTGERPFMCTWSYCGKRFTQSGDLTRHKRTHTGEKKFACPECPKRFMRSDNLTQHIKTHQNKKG
Sequence of ZFP SBS#1123 (synthetic) (chain, as listed by the source): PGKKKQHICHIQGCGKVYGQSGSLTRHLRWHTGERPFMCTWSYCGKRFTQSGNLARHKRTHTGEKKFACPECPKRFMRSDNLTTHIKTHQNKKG
Sequence of ZFP SBS#468 (synthetic) (chain, as listed by the source): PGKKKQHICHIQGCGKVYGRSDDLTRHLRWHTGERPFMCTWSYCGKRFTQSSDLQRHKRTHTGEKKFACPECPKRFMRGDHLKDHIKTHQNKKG
Sequence of ZFP SBS#466 (synthetic) (chain, as listed by the source): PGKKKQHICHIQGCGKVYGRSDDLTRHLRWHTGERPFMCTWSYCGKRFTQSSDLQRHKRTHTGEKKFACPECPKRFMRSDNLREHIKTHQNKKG
Sequence of ZFP SBS#1115 (synthetic) (chain, as listed by the source): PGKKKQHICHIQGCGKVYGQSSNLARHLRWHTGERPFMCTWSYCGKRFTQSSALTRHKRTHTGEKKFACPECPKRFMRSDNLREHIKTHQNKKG
Sequence of ZFP SBS#467 (synthetic) (chain, as listed by the source): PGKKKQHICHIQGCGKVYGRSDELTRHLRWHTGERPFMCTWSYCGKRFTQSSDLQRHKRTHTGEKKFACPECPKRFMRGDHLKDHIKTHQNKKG
Sequence of ZFP SBS#1106 (synthetic) (chain, as listed by the source): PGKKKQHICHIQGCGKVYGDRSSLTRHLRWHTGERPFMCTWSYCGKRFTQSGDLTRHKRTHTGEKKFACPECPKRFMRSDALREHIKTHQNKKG

B1: CAGGCTGCGC (dsDNA)
DNA 1: CAGGCTGCGC
DNA 2: GCGCAGCCTG
By Kd is commonly meant the concentration at which binding is half-saturated. A low value points to a tighter complex. For the molecule B1, the Kd in data set [1] was determined as 65 nM; in data set [2], 800 nM; in data set [3] it was 42 nM.

B2: CGGGCGGCC (dsDNA)
DNA 1: CGGGCGGCC
DNA 2: GGCCGCCCG
Turning to B2, the Kd in [4] worked out at 1.24 nM; in data set [5], 0.905 nM.

B3: GAGGCCGAA (dsDNA)
DNA 1: GAGGCCGAA
DNA 2: TTCGGCCTC
B3: in data set [6], the Kd worked out at 0.77 nM.

B4: CTGGGGGCA (dsDNA)
DNA 1: CTGGGGGCA
DNA 2: TGCCCCCAG
In turn, B4 had a Kd in [7] of 0.06 nM.

B5: CTGGTGGCA (dsDNA)
DNA 1: CTGGTGGCA
DNA 2: TGCCACCAG
B5 returned a Kd in data set [8] of 0.152 nM.

B6: CTGGCAGCC (dsDNA)
DNA 1: CTGGCAGCC
DNA 2: GGCTGCCAG
B6: the figures for the Kd in data set [9] and in data set [10] were 2.45 nM and 0.19 nM, respectively.

B7: GGTGAGGCG (dsDNA)
DNA 1: GGTGAGGCG
DNA 2: CGCCTCACC
Consider B7, for which the figures for the Kd in data set [11] and in data set [12] were 0.5 nM and 0.46 nM, respectively.

B8: CTGGTAGGG (dsDNA)
DNA 1: CTGGTAGGG
DNA 2: CCCTACCAG
For B8, the values for the Kd in data set [13] and in data set [14] were 0.125 nM and 0.095 nM, respectively.

B9: CAGGTTGAT (dsDNA)
DNA 1: CAGGTTGAT
DNA 2: ATCAACCTG
Regarding B9, the Kd is 0.7 nM in data set [15] and 2.75 nM in [16].

B10: AGGGACGCG (dsDNA)
DNA 1: AGGGACGCG
DNA 2: CGCGTCCCT
On to B10, for which the Kd in [17] was 2.73 nM.

B11: TAGGAAGCA (dsDNA)
DNA 1: TAGGAAGCA
DNA 2: TGCTTCCTA
B11 had a Kd in [18] of 0.065 nM.

B12: GAAGAGGTCT (dsDNA)
DNA 1: GAAGAGGTCT
DNA 2: AGACCTCTTC
Regarding B12, the affinity in data set [19], expressed as Kd, was 13.5 nM.

B13: TAGGGAGTC (dsDNA)
DNA 1: TAGGGAGTC
DNA 2: GACTCCCTA
B13 displayed a Kd in [20] of 1.4 nM.

B14: GGGGCTCGG (dsDNA)
DNA 1: GGGGCTCGG
DNA 2: CCGAGCCCC
The molecule B14 gave a Kd in data set [21] of 0.1 nM.

B15: CTGGTGGCC (dsDNA)
DNA 1: CTGGTGGCC
DNA 2: GGCCACCAG
B15: the Kd turned out to be 2.76 nM in data set [22] and 0.101 nM in data set [23].

B16: AGGGGAGCC (dsDNA)
DNA 1: AGGGGAGCC
DNA 2: GGCTCCCCT
As to B16, the Kd in data set [24] came to 0.095 nM; in data set [25], 0.347 nM.

B17: AAGGCAGAA (dsDNA)
DNA 1: AAGGCAGAA
DNA 2: TTCTGCCTT
For the molecule B17, the results for the Kd in [26] and in [27] were 8.15 nM and 1.4 nM, respectively.

B18: TGGGAGGGT (dsDNA)
DNA 1: TGGGAGGGT
DNA 2: ACCCTCCCA
In turn, B18 came in with a Kd in data set [28] of 0.1 nM.

B19: GGGGGAGCC (dsDNA)
DNA 1: GGGGGAGCC
DNA 2: GGCTCCCCC
With B19, the Kd in [29] was 0.019 nM; in [30] it was 0.395 nM.

B20: GACGAGGCT (dsDNA)
DNA 1: GACGAGGCT
DNA 2: AGCCTCGTC
For B20, in data set [31], the Kd is 0.171 nM. That is a sub-nanomolar value.

B21: GCGGTTGGT (dsDNA)
DNA 1: GCGGTTGGT
DNA 2: ACCAACCGC
In data set [32], B21 displayed a Kd of 12.3 nM.
